Laboratory results from US20240262906A1 (WELLMARKER BIO, published 2024).

Target: T1, IGSF1 overexpressed on cells (NCI-H292 IGSF1 O/E; HEK293E IGSF1 O/E) (human, UniProt Q8N6C5 581-1336)
T1 construct: Membrane protein expressed from a commercial vector (OriGene RC209621); also called IGSF1 antigen in cells
T1 sequence: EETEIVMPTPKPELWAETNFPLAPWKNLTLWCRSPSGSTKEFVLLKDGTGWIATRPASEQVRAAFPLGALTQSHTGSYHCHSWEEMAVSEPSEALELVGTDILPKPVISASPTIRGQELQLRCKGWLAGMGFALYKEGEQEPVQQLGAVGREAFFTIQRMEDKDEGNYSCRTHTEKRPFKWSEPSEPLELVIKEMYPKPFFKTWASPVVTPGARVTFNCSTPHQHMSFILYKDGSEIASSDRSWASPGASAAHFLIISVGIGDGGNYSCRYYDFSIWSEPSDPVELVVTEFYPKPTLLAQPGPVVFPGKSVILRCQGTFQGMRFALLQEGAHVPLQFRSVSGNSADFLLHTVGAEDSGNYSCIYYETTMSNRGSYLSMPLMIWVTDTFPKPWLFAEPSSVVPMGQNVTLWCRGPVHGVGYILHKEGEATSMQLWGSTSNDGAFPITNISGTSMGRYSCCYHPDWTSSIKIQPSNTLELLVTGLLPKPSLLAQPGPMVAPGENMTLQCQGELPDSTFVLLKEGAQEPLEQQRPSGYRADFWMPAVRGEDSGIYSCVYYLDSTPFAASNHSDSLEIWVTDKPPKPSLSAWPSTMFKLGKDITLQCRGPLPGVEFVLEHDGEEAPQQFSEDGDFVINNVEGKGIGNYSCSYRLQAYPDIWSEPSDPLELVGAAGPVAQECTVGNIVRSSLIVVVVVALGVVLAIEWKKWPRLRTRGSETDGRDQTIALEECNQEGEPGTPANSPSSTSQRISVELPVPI
Experiment: flow cytometry on NCI-H292 IGSF1 O/E cells, FITC anti-human IgG detection
Experimental: Specifically, the medium of NCI-H292 IGSF1 O/E cells and NCI-H292 MOCK cells was removed, washed once with PBS, and then treated with 2 ml of 0.25% trypsin-EDTA, and the cells were isolated. The isolated cells were diluted with 8 ml of PBS (hereinafter referred to as FACS buffer) containing 2% FBS and 0.05% sodium azide, and then the supernatant was removed by centrifugation at 1,200 rpm for 1 minute. Then, the cells were resuspended in FACS buffer to 1×10⁵ cells/ml. Thereafter, 1 ml of each was dispensed in a FACS tube, and the supernatant was removed by centrifugation at 1,200 rpm for 1 minute.
After the reaction was completed, 1 ml of FACS buffer was added to each tube, and the supernatant was removed by centrifugation at 1,200 rpm for 1 minute. This process was performed a total of two times. […]
Finally, after removal of the supernatant, the remaining pellet was resuspended in 200 μl of FACS buffer and analyzed by FACS. For FACS analysis, FITC fluorescence value labeled in each cell was measured using a BD LSRFortessa™ flow cytometer, and then the results were analyzed using a FlowJo software, and EC50 value was calculated using a sigma plot program. […]

B1: WM-A1-3389 antibody (antibody, human IgG1, kappa, V domains shown)
VH: QVQLVQSGAEVKRPGSSVKVSCKASGGTFSTYAISWVRQAPGQGLEWMGRIIPFVGTVDYAQKFQDRVTITADKSTNTAYMELSSLRSEDTAVYYCVRDGGRSYFDSWGPGILVTVSS
VL: QFVLTQPPSVSAAPGQDVIISCSGNTSNIGSNLVSWFQQFPETAPKLLIYDNHKRPSGISDRFSGTKSGTSASLAISGLQSEDEADYYCVAWDDSLNGYVFGTGTKVTVLR
notes: Human antibody from a phage library, converted to whole IgG; also called anti-IGSF1 antibody
  EC50: ~69 nM
